Measurements taken from article PMC6238616.

Legend:
[1] = biological target: synaptotagmin binding cytoplasmic RNA interacting protein (SYNCRIP), wild type, LUMIER fusion; experiment: LUMIER; conditions: read off a plot
[2] = biological target: SMN1, wild type, LUMIER fusion (UniProt Q16637); experiment: LUMIER; conditions: parent: est. 120000; read off a plot
Chain of SMN1, wild type, LUMIER fusion (UniProt Q16637) (Q16637 whole entry, the tested form may be a part): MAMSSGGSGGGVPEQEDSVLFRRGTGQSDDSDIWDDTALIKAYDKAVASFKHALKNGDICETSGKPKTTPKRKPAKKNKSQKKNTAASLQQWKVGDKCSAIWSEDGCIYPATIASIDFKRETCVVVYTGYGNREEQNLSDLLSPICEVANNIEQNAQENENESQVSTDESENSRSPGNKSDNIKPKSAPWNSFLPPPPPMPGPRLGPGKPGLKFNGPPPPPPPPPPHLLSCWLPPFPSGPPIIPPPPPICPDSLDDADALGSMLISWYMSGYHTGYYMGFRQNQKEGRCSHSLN

Chain of SMN1, wild type, LUMIER fusion (from UniProt Q16637) SMN1 DD MT (Q16637 whole entry, change not shown, the tested form may be a part): as the sequence (Q16637 whole entry, the tested form may be a part) above

Substance	response ([1]; parent: est. 180000) [RU]	response ([1]; parent: est. 100000) [RU]	response [2] [RU]
SMN1, wild type, LUMIER fusion (from UniProt Q16637) Y127L	91000		
PHF1, wild type, LUMIER fusion (from UniProt O43189) Y47A		32000	
SMN1, wild type, LUMIER fusion (from UniProt Q16637) SMN1 DD MT	110000		37000
